Test system: peptide library, one residue held at a place counted from the Y acceptor
Assay: relative phosphorylation of the sub-library (ratio to the mean residue at this position); higher = residue favoured
Method in brief: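 Within 384-well plates, purified recombinant kinases phosphorylated biotinylated Tyr-centred peptide library mixtures over 90 min using 50 μM ATP spiked with γ-32P-ATP; each mixture fixed one residue at one position from −5 to +5. Streptavidin membrane capture, rinsing, phosphorimaging and ImageQuant gave the intensities. These were normalized per position to the sum of the 18 randomized residues (16 for the Ser/Thr-free library) and multiplied by that number.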

Chain of ABL2, construct: aa38-end, human (P42684 38-1182, looked up): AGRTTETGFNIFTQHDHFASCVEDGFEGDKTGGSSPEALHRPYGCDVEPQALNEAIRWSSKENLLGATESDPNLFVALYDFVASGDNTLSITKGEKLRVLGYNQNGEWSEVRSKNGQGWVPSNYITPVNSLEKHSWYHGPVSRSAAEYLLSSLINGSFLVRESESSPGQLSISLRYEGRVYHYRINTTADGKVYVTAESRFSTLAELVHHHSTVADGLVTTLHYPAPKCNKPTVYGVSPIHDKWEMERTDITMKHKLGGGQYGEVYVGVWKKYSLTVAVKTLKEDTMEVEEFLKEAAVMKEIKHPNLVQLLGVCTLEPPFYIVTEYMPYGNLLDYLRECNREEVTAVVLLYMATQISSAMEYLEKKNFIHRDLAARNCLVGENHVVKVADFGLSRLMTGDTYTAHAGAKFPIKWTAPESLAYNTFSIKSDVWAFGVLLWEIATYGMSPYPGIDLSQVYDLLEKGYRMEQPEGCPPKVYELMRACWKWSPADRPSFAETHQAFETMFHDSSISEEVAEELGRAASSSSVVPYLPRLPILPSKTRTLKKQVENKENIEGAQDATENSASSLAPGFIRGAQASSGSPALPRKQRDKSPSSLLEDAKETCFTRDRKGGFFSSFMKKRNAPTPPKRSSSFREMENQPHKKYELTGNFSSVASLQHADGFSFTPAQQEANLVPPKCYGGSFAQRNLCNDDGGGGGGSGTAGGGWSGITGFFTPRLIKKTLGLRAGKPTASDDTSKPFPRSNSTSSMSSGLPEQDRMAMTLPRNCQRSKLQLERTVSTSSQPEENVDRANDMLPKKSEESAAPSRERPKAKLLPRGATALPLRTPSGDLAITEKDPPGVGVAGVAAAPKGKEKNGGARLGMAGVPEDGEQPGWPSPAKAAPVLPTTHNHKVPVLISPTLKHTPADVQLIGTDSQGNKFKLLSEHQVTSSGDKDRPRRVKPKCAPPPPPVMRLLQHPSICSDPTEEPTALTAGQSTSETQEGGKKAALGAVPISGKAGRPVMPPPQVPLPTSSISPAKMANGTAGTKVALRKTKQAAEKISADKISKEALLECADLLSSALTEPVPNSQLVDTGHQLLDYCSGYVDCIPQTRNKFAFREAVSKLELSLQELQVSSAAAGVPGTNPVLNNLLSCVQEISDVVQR
Chain of ABL1, construct: aa27-end, human (P00519 27-1130, looked up): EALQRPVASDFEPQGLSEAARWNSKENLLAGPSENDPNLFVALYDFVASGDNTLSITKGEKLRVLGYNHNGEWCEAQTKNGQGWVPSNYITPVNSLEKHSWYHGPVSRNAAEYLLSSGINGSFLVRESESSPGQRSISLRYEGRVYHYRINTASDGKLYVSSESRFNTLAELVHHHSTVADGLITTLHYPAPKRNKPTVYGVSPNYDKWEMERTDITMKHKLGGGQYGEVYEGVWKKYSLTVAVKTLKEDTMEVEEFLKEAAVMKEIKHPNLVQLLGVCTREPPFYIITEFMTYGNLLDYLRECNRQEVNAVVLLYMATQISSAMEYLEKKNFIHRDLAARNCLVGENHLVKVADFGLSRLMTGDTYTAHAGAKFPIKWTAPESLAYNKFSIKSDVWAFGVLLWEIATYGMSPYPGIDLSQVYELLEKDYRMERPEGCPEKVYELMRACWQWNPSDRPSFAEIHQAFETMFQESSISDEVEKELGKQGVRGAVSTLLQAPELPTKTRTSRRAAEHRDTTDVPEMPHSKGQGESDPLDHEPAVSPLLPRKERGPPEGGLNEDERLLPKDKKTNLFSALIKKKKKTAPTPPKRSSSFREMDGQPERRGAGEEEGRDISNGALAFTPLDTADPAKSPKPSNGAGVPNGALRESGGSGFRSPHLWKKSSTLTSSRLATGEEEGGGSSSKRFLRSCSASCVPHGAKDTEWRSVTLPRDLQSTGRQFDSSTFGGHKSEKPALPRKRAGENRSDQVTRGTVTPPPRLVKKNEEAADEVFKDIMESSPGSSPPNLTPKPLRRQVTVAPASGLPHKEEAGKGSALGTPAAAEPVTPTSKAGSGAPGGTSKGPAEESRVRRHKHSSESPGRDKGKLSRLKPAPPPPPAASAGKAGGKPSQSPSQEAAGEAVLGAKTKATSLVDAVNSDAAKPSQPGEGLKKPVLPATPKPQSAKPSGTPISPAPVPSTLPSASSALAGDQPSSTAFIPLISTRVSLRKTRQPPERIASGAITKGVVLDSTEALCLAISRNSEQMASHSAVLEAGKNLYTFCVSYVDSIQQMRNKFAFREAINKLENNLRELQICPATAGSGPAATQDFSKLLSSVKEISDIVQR

ABL1, construct: aa27-end, human (from UniProt P00519)
relative phosphorylation
Settings	at +1	at +2	at +3	at +4	at +5	at -1	at -2	at -3	at -4	at -5
A fixed	3.14	1.24	0.892	0.948	1.12	0.702	1.12	1.02	1.24	1.16
D fixed	0.625	0.513	0.23	0.579	0.651	0.886	0.85	1.21	1.2	1.03
E fixed	0.874	0.93	0.159	0.615	0.611	1.2	1.24	1.91	1.52	0.963
F fixed	0.86	0.975	1.28	1.16	0.705	0.795	0.615	0.796	0.702	0.817
G fixed	1.36	0.628	1.36	1.34	1.27	0.502	1.27	1.16	1.36	1.24
H fixed	1.17	0.749	0.814	1.17	1.1	1.63	0.935	0.919	0.893	1.07
I fixed	0.406	1.05	1.14	0.772	0.681	3.33	0.883	0.491	0.797	0.806
K fixed	0.586	0.815	0.403	1.17	1.17	0.402	0.87	0.79	0.874	1.08
L fixed	0.815	0.961	1.49	0.918	0.987	1.54	1.01	0.885	0.985	0.936
M fixed	1.15	0.954	0.883	1.19	1.09	1.06	0.779	0.928	0.884	0.965
N fixed	0.45	1.01	0.619	0.897	0.922	0.549	0.96	1.18	0.903	1.09
P fixed	0.184	1.02	2.74	0.832	1.38	0.541	1.29	1.14	1.22	1.2
Q fixed	1.13	0.901	0.419	1.09	0.947	0.745	1.08	0.973	1.18	1.07
R fixed	0.969	1.22	0.633	1.36	1.36	0.406	0.825	0.813	0.953	1.19
S fixed	1.16	1.32	1.17	1.01	1.06	0.472	1.12	1.06	0.86	1.01
T fixed	0.843	1.37	1.28	0.939	1.19	0.908	1.19	1.05	0.796	0.97
V fixed	1.03	1.39	1.04	0.925	0.996	1.81	1.4	0.873	1.01	0.873
W fixed	1.26	0.958	1.44	1.08	0.743	0.516	0.567	0.799	0.622	0.509
pThr fixed	0.766	0.921	0.395	0.391	0.458	0.785	0.973	1.51	1.11	0.913
pTyr fixed	1.47	1.77	0.465	0.55	0.607	3.35	1.39	2.36	1.66	1.18

ABL2, construct: aa38-end, human (from UniProt P42684)
relative phosphorylation
Settings	at +1	at +2	at +3	at +4	at +5	at -1	at -2	at -3	at -4	at -5
A fixed	2.85	1.32	0.871	0.935	1.01	0.717	1.18	1.04	1.16	1.1
D fixed	0.701	0.534	0.245	0.662	0.681	1.01	1.01	1.23	1.32	1.07
E fixed	0.884	1.2	0.199	0.735	0.686	1.45	1.38	1.88	1.69	1.13
F fixed	1.07	0.802	1.21	1.18	0.822	0.756	0.548	0.786	0.675	0.828
G fixed	1.26	0.647	1.23	1.2	1.27	0.49	1.24	1.15	1.33	1.29
H fixed	1.06	0.833	0.868	1.13	1.02	1.62	0.933	1.02	0.859	1.12
I fixed	0.517	0.843	1.46	0.736	0.781	2.9	0.867	0.598	0.774	0.716
K fixed	0.636	0.836	0.439	1.2	1.15	0.425	0.846	0.785	0.926	1.01
L fixed	0.857	0.904	1.47	0.813	0.85	1.55	0.885	0.758	0.87	0.831
M fixed	1.18	0.923	0.861	1.04	1.05	1.05	0.742	0.852	0.907	0.909
N fixed	0.492	1.06	0.756	0.988	1.02	0.674	1.11	1.25	0.871	1.27
P fixed	0.161	1.14	2.59	0.968	1.57	0.556	1.36	1.26	1.34	1.24
Q fixed	1.33	0.97	0.472	1.14	0.969	0.856	1.21	0.957	1.21	1.08
R fixed	1.03	1.27	0.684	1.43	1.4	0.451	0.896	0.883	1.07	1.18
S fixed	1.16	1.24	1.18	0.997	1.13	0.495	1.18	1.12	0.812	0.966
T fixed	0.802	1.42	1.09	0.919	1.11	1.03	1.05	1.11	0.74	0.923
V fixed	0.938	1.33	0.988	0.872	0.79	1.54	1.13	0.771	0.828	0.84
W fixed	1.05	0.737	1.39	1.04	0.69	0.421	0.422	0.552	0.623	0.506
pThr fixed	0.853	1.01	0.2	0.405	0.454	0.971	1.03	1.36	1.07	1.06
pTyr fixed	1.61	1.79	0.391	0.696	0.52	3.96	1.26	1.9	1.49	1.26
